Experimental data from the supplement of paper PMC5998384.

How the values were obtained:
[1] = test system: HeLa Kyoto; assay: solubility in G1/S (NP-40 vs SDS abundance) (log2 ratio); higher = more soluble; conditions: cell cycle stage: G1/S
[2] = test system: HeLa Kyoto; assay: solubility change mitosis vs G1/S (difference of NP-40 vs SDS log2 ratios) (log2 ratio difference); higher = more soluble in mitosis
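Throughout, for solubility change mitosis vs G1/S (difference of NP-40 vs SDS log2 ratios): synchronized HeLa Kyoto cells (double thymidine block for G1/S, nocodazole release for mitosis), protein amounts in NP-40 versus SDS lysates quantified by mass spectrometry, three biological replicates.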
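Throughout, for solubility in G1/S (NP-40 vs SDS abundance): HeLa Kyoto cells arrested at G1/S by double thymidine block, proteins quantified by TMT10plex mass spectrometry in mild NP-40 versus SDS extracts, three biological replicates.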

| Sequence | solubility in G1/S (log2) [1] | solubility change mitosis (log2) [2] |
| --- | --- | --- |
| MHQTLCLNPESLKMSACSDFVEHIWKPGSCKNCFCLRSDHQLVAGPPQPRAGSLPPPPRLPPRPENCRLEDEGVNSSPYSKPTIAVKPTMMSSEASDVWTEANLSAEVSQVIWRRAPGKLPLPKQEDAPVVYLGSFRGVQKPAGPSTSPDGNSRCPPAYTMVGLHNLEPRGERNIAFHPVSFPEEKAVHKEKPSFPYQDRPSTQESFRQKLAAFAGTTSGCHQGPGPLRESLPSEDDSDQRCSPSGDSEGGEYCSILDCCPGSPVAKAASQTAGSRGRHGGRDCSPTCWEQGKCSGPAEQEKRGPSFPKECCSQGPTAHPSCLGPKKLSLTSEAAISSDGLSCGSGSGSGSGASSPFVPHLESDYCSLMKEPAPEKQQDPGCPGVTPSRCLGLTGEPQPPAHPREATQPEPIYAESTKRKKAAPVPSKSQAKIEHAAAAQGQGQVCTGNAWAQKAASGWGRDSPDPTPQVSATITVMAAHPEEDHRTIYLSSPDSAVGVQWPRGPVSQNSEVGEEETSAGQGLSSRESHAHSASESKPKERPAIPPKLSKSSPVGSPVSPSAGGPPVSPLADLSDGSSGGSSIGPQPPSQGPADPAPSCRTNGVAISDPSRCPQPAASSASEQRRPRFQAGTWSRQCRIEEEEEVEQELLSHSWGRETKNGPTDHSNSTTWHRLHPTDGSSGQNSKVGTGMSKSASFAFEFPKDRSGIETFSPPPPPPKSRHLLKMNKSSSDLEKVSQGSAESLSPSFRGVHVSFTTGSTDSLASDSRTCSDGGPSSELAHSPTNSGKKLFAPVPFPSGSTEDVSPSGPQQPPPLPQKKIVSRAASSPDGFFWTQGSPKPGTASPKLNLSHSETNVHDESHFSYSLSPGNRHHPVFSSSDPLEKAFKGSGHWLPAAGLAGNRGGCGSPGLQCKGAPSASSSQLSVSSQASTGSTQLQLHGLLSNISSKEGTYAKLGGLYTQSLARLVAKCEDLFMGGQKKELHFNENNWSLFKLTCNKPCCDSGDAIYYCATCSEDPGSTYAVKICKAPEPKTVSYCSPSVPVHFNIQQDCGHFVASVPSSMLSSPDAPKDPVPALPTHPPAQEQDCVVVITREVPHQTASDFVRDSAASHQAEPEAYERRVCFLLLQLCNGLEHLKEHGIIHRDLCLENLLLVHCTLQAGPGPAPAPAPAPAPAAAAPPCSSAAPPAGGTLSPAAGPASPEGPREKQLPRLIISNFLKAKQKPGGTPNLQQKKSQARLAPEIVSASQYRKFDEFQTGILIYELLHQPNPFEVRAQLRERDYRQEDLPPLPALSLYSPGLQQLAHLLLEADPIKRIRIGEAKRVLQCLLWGPRRELVQQPGTSEEALCGTLHNWIDMKRALMMMKFAEKAVDRRRGVELEDWLCCQYLASAEPGALLQSLKLLQLL [SGK223] | -0.249 | -0.132 |
| MILTKAQYDEIAQCLVSVPPTRQSLRKLKQRFPSQSQATLLSIFSQEYQKHIKRTHAKHHTSEAIESYYQRYLNGVVKNGAAPVLLDLANEVDYAPSLMARLILERFLQEHEETPPSKSIINSMLRDPSQIPDGVLANQVYQCIVNDCCYGPLVDCIKHAIGHEHEVLLRDLLLEKNLSFLDEDQLRAKGYDKTPDFILQVPVAVEGHIIHWIESKASFGDECSHHAYLHDQFWSYWNRFGPGLVIYWYGFIQELDCNRERGILLKACFPTNIVTLCHSIA [C15ORF41] | 0.176 | 0.0246 |
| MIPLEKPGSGGSSPGATSGSGRAGRGLSGPCRPPPPPQARGLLTEIRAVVRTEPFQDGYSLCPGRELGRGKFAVVRKCIKKDSGKEFAAKFMRKRRKGQDCRMEIIHEIAVLELAQDNPWVINLHEVYETASEMILVLEYAAGGEIFDQCVADREEAFKEKDVQRLMRQILEGVHFLHTRDVVHLDLKPQNILLTSESPLGDIKIVDFGLSRILKNSEELREIMGTPEYVAPEILSYDPISMATDMWSIGVLTYVMLTGISPFLGNDKQETFLNISQMNLSYSEEEFDVLSESAVDFIRTLLVKKPEDRATAEECLKHPWLTQSSIQEPSFRMEKALEEANALQEGHSVPEINSDTDKSETKESIVTEELIVVTSYTLGQCRQSEKEKMEQKAISKRFKFEEPLLQEIPGEFIY [STK17A] | 0.0848 | -0.0546 |
